Test results: patent publication US20190048080A1 (SHANGHAI KANDA BIOTECHNOLOGY, published 2019)

Target: T1, recombinant human CTLA-4-Fc fusion protein (R&D Systems) (human, UniProt P16410 37-162)
T1 construct: range 37-162; also called fusion protein CTLA-4/Fv; recombinant protein CTLA-4; not shown: IgG constant region (Fc) of the bought fusion protein
T1 sequence (looked up): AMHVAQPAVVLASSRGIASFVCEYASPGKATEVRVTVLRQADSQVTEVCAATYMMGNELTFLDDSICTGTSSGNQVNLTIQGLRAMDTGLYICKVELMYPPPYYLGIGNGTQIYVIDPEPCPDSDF
Assay: phage display panning on coated CTLA-4/Fc, then ELISA of purified scFv on coated recombinant CTLA-4

binding result: binds
B1: human anti-CTLA-4 single-chain variable region (scFv) antibody (scFv)
scFv: QVQLVQSGGGVVQPGRSLRLSCAASGFTFSSYGMHWVRQAPGKGLEWVAVIWYDGSRQYYADSVKGRFTISRDDSKNTMYLQMNSLRAEDTAVYYCARGGFWGAFDIWGQGTMVTVSSGSGGGGSDVVMTQSPGTLSLSPGEGATLSCRASQHVISSYLAWYQQKPGQAPRLLVYGASSRDTGVSDRFTGSGSGTDFTLTISRLEPEDSAVYFCQQYGTSPWTFGQGTKLEIKR
notes: also called anti-CTLA-4 scFv; CTLA-4scFv
